The assay addresses T1, PfSir2A (Plasmodium falciparum Sir2), GST fusion (Plasmodium falciparum, UniProt Q8IE47 1-273).
T1 sequence (looked up): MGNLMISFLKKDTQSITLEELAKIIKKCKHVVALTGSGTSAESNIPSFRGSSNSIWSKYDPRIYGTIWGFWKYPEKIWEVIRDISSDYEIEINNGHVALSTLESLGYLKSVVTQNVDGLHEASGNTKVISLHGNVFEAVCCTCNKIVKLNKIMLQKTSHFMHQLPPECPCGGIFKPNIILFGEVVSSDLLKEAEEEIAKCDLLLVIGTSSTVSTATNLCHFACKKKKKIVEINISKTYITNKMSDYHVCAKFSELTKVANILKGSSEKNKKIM
Put plainly: pull-down.

B1: PfAlba3 (Plasmodium falciparum Alba 3), His-tag fusion protein (natural protein, UniProt Q8IJX8 1-107, looked up)
chain: MASTEEVSQERSENSIQVSMTKKPTFYARIGKRMFTGNEEKNPFDEVIITGLGNATKIAIGAASIMEKEDIGQIVKVQTAYFSSDRINRRIPKITIVLKKHPDFVAN
For B1, the binding result was “binds”.

Values taken from PMC3273813 (Nucleic Acids Research, 2011).
